Molecular target: Cas9 (Streptococcus pyogenes, UniProt Q99ZW2 SEQ:1-1368)
Assay: DSF, no thermal shift with alien gRNA; 10 mM Hepes pH 7.5, 150 mM NaCl; 1 uM gRNA
Conditions: gRNA scaffold; printed as encoding DNA
Protocol: DSF was also used to examine Cas9 molecule/gRNA molecule complexes. S. pyogenes Cas9 alone, S. pyogenes Cas9 with 1 μM S. pyogenes gRNA, and S. pyogenes Cas9 with 1 μM S. aureus gRNA were tested in H150 (10 mM Hepes pH 7.5, 150 mM NaCl). The DNA sequences encoding the gRNA molecules used in these experiments were: […]

Cas9, sequence (Q99ZW2 whole entry): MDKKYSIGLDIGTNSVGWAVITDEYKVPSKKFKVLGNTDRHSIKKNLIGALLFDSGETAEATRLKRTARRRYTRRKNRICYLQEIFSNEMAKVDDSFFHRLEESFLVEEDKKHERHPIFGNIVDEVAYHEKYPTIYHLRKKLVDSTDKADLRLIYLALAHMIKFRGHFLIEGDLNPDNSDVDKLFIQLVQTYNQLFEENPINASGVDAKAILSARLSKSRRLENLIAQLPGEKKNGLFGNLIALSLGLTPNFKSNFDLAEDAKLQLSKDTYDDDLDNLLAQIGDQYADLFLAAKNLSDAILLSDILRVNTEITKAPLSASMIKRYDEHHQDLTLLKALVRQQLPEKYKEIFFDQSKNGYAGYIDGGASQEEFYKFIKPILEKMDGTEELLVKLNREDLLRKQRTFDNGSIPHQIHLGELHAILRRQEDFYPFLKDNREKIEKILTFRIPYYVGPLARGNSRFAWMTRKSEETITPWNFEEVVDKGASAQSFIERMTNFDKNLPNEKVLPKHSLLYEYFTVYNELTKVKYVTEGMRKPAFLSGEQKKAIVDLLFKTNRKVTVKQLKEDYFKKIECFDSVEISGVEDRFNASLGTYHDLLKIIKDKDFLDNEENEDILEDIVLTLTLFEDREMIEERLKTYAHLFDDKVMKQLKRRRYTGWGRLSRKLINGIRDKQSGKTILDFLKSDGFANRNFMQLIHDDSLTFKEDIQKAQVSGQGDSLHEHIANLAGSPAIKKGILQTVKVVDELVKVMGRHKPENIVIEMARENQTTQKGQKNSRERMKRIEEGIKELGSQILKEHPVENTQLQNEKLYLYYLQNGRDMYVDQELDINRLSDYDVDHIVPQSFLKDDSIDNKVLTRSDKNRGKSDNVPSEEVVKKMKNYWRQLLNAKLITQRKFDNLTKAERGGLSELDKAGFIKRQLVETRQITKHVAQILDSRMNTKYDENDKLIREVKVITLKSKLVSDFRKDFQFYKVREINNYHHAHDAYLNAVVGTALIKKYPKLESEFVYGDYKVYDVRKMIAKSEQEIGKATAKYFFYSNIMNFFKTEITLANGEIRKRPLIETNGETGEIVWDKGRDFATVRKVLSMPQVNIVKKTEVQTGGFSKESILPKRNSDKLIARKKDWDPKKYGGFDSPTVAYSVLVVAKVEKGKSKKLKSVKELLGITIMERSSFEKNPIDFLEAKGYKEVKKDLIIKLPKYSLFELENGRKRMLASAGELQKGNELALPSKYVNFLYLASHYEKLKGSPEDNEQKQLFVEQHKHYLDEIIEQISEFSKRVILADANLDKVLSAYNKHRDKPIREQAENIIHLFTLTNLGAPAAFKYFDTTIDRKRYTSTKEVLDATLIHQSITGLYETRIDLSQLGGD

B1: S. aureus gRNA scaffold (ssRNA)
RNA: GUUUUAGUACUCUGGAAACAGAAUCUACUAAAACAAGGCAAAAUGCCGUGUUUAUCUCGUCAACUUGUUGGCGAGAUUUU
binding result: no binding

Source: patent US20180135109, “EVALUATION OF CAS9 MOLECULE/GUIDE RNA MOLECULE COMPLEXES” (EDITAS MEDICINE, INC., published 2018)
